B1: Candidate 6-2: Truncated SRF-UCOE variant having a 478 base pair 5′ end deletion, SEQ ID NO:3 (nucleic acid)
DNA: AGCGGCTTCCGCCGGGCTGCTCCGCGGGCGCGTCGGCCATGAGCGAGTTGCCGGGCGACGTGCGGGCGTTTCTGCGGGAGCACCCGAGCCTGCGGCTCCAGACGGACGCCCGCAAGGTTCGCAGCGCGGGAGGGGAACGGAGTGGCGGAGAAGGGCGCAGTTGGGATGAGGGGCTGAGGGGAGGGCAGGGGAGAGGAGAGGGCAGGGGAGAGGGGAGAGGGGAGAGCAGGAGAGAGGGGAAGGCAGGGGAGAGGGCGCGGCGGGATCAGGGGAGGAGAGGGAAGGGGGCGCGGCAGGAGGGGGCACCAGGGAGCGGAGCCCTGGCCCTCCTGACGTCCTGCCCGCCCACGCGTCCGCAGGTGAGGTGCATCCTGACAGGTCACGAGCTGCCCTGCCGCCTGCCGGAGCTCCAGGTCTACACCCGCGGCAAAAAGTACCAGCGGCTGGTCCGCGCCTCCCCGGCCTTCGACTATGCAGAGTTCGAGCCGCACATCGTGCCCAGCACCAAGAACCCGTAGGTGGTC
B2: Candidate 6-3: Truncated SRF-UCOE variant having a 241 base pair 3′ end deletion, SEQ ID NO:4 (nucleic acid)
DNA: GCACACGACCACAATTCCACTGAAAGCATTTTAATACGGAACTTGTCACTCCCAGGGAGCCTCCGCTCAGCCGGCAGTTGGTTCATTTCAATCCCCACGACAACCCTTCAAAGTGCAGGGCAGACAGCAGGTGGCTCTGCCCAGGCGCCTGGATCACAGCCCGGCCTGCAGCCCTCACCTGGGCGCGGGGAGACCCTGAGGACGCTCCTCCAGGCGGCGCTGGCCGGGGCCTGCGGACACGGACGGGCGGGCTGAGCTCCGGGACCCCTCCCCGCGCCCCGCACCCCGCACCCCGCACCCCGCACCCCGCACCCGGCGCTCACCCGTCCCAGCCCCGCCGCCCGCAGCCCCAGCTGCAACGCAGCCACCGCCGCCATCGCACCCGGCCCCGCGGGCGCTTCCGGGACGCAGGAGGCATCTGCATCCGGGGCGCCGCTGAGTCCCGCCCAGAGCCCCGCCCCCGGCTCCAGGTTCTGCGAGCGGCTTCCGCCGGGCTGCTCCGCGGGCGCGTCGGCCATGAGCGAGTTGCCGGGCGACGTGCGGGCGTTTCTGCGGGAGCACCCGAGCCTGCGGCTCCAGACGGACGCCCGCAAGGTTCGCAGCGCGGGAGGGGAACGGAGTGGCGGAGAAGGGCGCAGTTGGGATGAGGGGCTGAGGGGAGGGCAGGGGAGAGGAGAGGGCAGGGGAGAGGGGAGAGGGGAGAGCAGGAGAGAGGGGAAGGCAGGGGAGAGGGCGCGGCGGGATCAGGGGAGGAGAGGGAA
B3: Candidate 6-1: Truncated SRF-UCOE variant having a 106 base pair 5′ end deletion, SEQ ID NO:2 (nucleic acid)
DNA: TTCAAAGTGCAGGGCAGACAGCAGGTGGCTCTGCCCAGGCGCCTGGATCACAGCCCGGCCTGCAGCCCTCACCTGGGCGCGGGGAGACCCTGAGGACGCTCCTCCAGGCGGCGCTGGCCGGGGCCTGCGGACACGGACGGGCGGGCTGAGCTCCGGGACCCCTCCCCGCGCCCCGCACCCCGCACCCCGCACCCCGCACCCCGCACCCGGCGCTCACCCGTCCCAGCCCCGCCGCCCGCAGCCCCAGCTGCAACGCAGCCACCGCCGCCATCGCACCCGGCCCCGCGGGCGCTTCCGGGACGCAGGAGGCATCTGCATCCGGGGCGCCGCTGAGTCCCGCCCAGAGCCCCGCCCCCGGCTCCAGGTTCTGCGAGCGGCTTCCGCCGGGCTGCTCCGCGGGCGCGTCGGCCATGAGCGAGTTGCCGGGCGACGTGCGGGCGTTTCTGCGGGAGCACCCGAGCCTGCGGCTCCAGACGGACGCCCGCAAGGTTCGCAGCGCGGGAGGGGAACGGAGTGGCGGAGAAGGGCGCAGTTGGGATGAGGGGCTGAGGGGAGGGCAGGGGAGAGGAGAGGGCAGGGGAGAGGGGAGAGGGGAGAGCAGGAGAGAGGGGAAGGCAGGGGAGAGGGCGCGGCGGGATCAGGGGAGGAGAGGGAAGGGGGCGCGGCAGGAGGGGGCACCAGGGAGCGGAGCCCTGGCCCTCCTGACGTCCTGCCCGCCCACGCGTCCGCAGGTGAGGTGCATCCTGACAGGTCACGAGCTGCCCTGCCGCCTGCCGGAGCTCCAGGTCTACACCCGCGGCAAAAAGTACCAGCGGCTGGTCCGCGCCTCCCCGGCCTTCGACTATGCAGAGTTCGAGCCGCACATCGTGCCCAGCACCAAGAACCCGTAGGTGGTC

Tested on: P19 cells
Assay: Lentiviral transduction silencing experiment, UCOE linked to CMV, EF1α, RSV or PGK promoter driving GFP
Format: cell-based, mouse
Details: for anti-silencing performance across all four tested promoters: CMV, EF1α, RSV, PGK promoters; for GFP positive cells / expression compared to the negative control: final timepoint
Description: The graphs show the raw data of measured percent GFP positive cells (% GFP+) for each construct over time. Transduced populations were sorted into triplicate wells using FACS at day 0 (5 days after lentiviral transductions) to begin the study at 100% GFP positive cells. Expression is lost quickly within the first 10 days, and then stabilizes around day 15. Data is reported as mean±SD from biological triplicates. Two positive UCOE controls (A2UCOE, 3′UCOE) and a negative control (no insulator region) were used.
Percent GFP positive cells at the final timepoint (day 26 for CMV and RSV, day 27 for PGK and EF1α) of the lentivirus silencing experiment across the four tested promoters is plotted. P19 cells were FACS-sorted five days after transduction (day 0) and then assayed over a 26 or 27-day time period thereafter. Data is reported as mean±SD from three biological replicates.
Two plasmids (pCS3800: encoding HIV-1 Gag; pCS380: encoding VSVg envelope protein) were used with varying versions of the donor plasmid pCS3799. HEK293T cells were plated at 5×10^6 cells in a 10 cm dish. Twenty-four hours after plating, the three plasmids (10 μg donor, 8 μg pCS3800, 10 μg pCS3801) were co-transfected together using a calcium phosphate protocol (Zufferey, R. T. and Trono, D. (2001) Current Protocols in Human Genetics, 26 (1), 12.10.1-12.10.12; DOI: 10.1002/0471142905.hg1210s26 (55)). The total DNA was brought to 500 μL in water, to which 500 μL of 2×HEPES-buffered saline, pH7.0 (Alfa Aesar) was added and mixed. One-tenth of the total volume (100 μL) of 2.5 M calcium chloride (Sigma-Aldrich) was then added to the mixture, followed by a 20-minute incubation. The mixture was then added to the plate in a dropwise manner. Media was replaced six hours later, and the supernatant was collected at 48 hr after the transfection, filtered through 0.4 μm filter, and frozen at −80° C. in 1 mL aliquots. Lentiviral aliquots were thawed in a 37° C. bead bath before transductions.
P19 cells were plated at 20-30,000 cells/well in 12-well plates one day before transduction. Twenty-four hours after plating, cells were transduced at varying dilutions of the lentiviral stock (ranging from 1:2 to 1:100) in DMEM+10% FBS with 8 μg/mL polybrene (Santa Cruz Biotechnologies). Media was refreshed on P19 cells 24 hours after transduction, and cells were passaged and assayed through a MACSQuant® VYB flow cytometer (Miltenyi Biotec) 48 h after transduction. MOI was determined by reporter expression at this timepoint using the following formula: MOI=ln (1/1-p) where p is the % of cells that are GFP positive at 48 hours post-transduction (Chen, S. et al. (2015) Cell, 160, 1246-1260 (56)).
Cells were FACS-sorted on the BD Influx™ cell sorter at the Stanford FACS Facility using the 488-nm laser and 525/40 filter to assay GFP expression. After gating for singlets and viability, GFP+ gate was drawn to be <0.1% GFP positive in non-transduced P19 cells. GFP+ gates were re-drawn for each promoter set to avoid the ˜10% highest and lowest expressing cells within the GFP+ gate, but the same gate was used for every experimental condition under the same promoter. Triplicate wells of each population (12-15,000 cells/well in a 24-well plate) were collected.
Fluorescence data throughout silencing experiments was obtained using a MACSQuant® VYB flow cytometer (Miltenyi Biotec). EGFP was measured through the 488-nm laser and 525/50 nm band pass filter. Flow cytometry data was analyzed using the FlowJo™ single cell flow cytometry analysis software (Tree Star). After being gated for singlets and viability, GFP+ gates in FlowJo were drawn such that a non-transfected or non-transduced P19 cell population was at 1% GFP+. Median values reported are of cells within the GFP+ gate, both % GFP positive and median are reported with the standard deviation of biological replicates. […]

[1] = Ef1α promoter, day 27 after FACS sort to 100% GFP+

| Molecule | efficacy in resisting silencing (CMV promoter) | % GFP+ cells at final timepoint (CMV promoter, day 26) [%] | % GFP+ cells, representative example (one biological replicate) (CMV promoter, day 26) [%] | improvement over A2UCOE (CMV promoter, day 26) [fold] | improvement over the negative control (CMV promoter, day 26) [fold] | anti-silencing performance across all four tested promoters | efficacy in resisting silencing (Ef1α promoter) | % GFP+ cells at final timepoint [1] | efficacy in resisting silencing (PGK promoter) | % GFP+ cells at final timepoint (PGK promoter, day 27) [%] | efficacy in resisting silencing (RSV promoter) | % GFP+ cells, representative example (one biological replicate) (EF1a promoter, day 27) [%] | GFP positive cells / expression compared to the negative control (Ef1α promoter) | % GFP+ cells, representative example (one biological replicate) (PGK promoter, day 27) [%] | % GFP+ cells at final timepoint (RSV promoter, day 26) [%] | expressing cells / improvement over the negative control (PGK promoter, day 27) [fold] |
| --- | --- | --- | --- | --- | --- | --- | --- | --- | --- | --- | --- | --- | --- | --- | --- | --- |
| B1 | best-performing population | 55 | 59.2 | 1.4 | 4.4 | failed to outperform the negative control in 3 of the 4 promoters tested | ineffective | 11% | substantially less effective than the other Candidate 6 sequences | 17 | ineffective |  |  |  |  |  |
| B2 |  | 39 |  |  | 3 | most consistent activity |  | greater than 65% |  | 49 |  | 69 | more than four times | 47.8 | 66 |  |
| B3 |  | 39 |  |  | 3 |  |  |  |  | 31 |  |  | 3.6 times |  | 68 | 5 |

— patent US12611470B2, “Chromatin-opening element for stable long term gene expression” (CZ Biohub SF, LLC, priority 2019, dated 2026)
